Assay results: patent publication US20200299331A1
Bridge positions count the residues as written; N and C are the ends.

Target: TNF receptor (human)
Experiment: cell-based or functional assay

B1: AP301 peptide (peptide)
peptide: H-CGQRETPEGAEAKPWYC-OH
modifications: bridge 1-17; also: cyclized via the Cys residues, disulfide given as preferred, bond type of batch not given here
< 0.5 pg/mL: concentration of IL-6 (pg/ml, n = 5) released from fresh human whole blood, AP301 at 1 ng/ml | concentration of IL-6 (pg/ml, n = 5) released from fresh human whole blood, AP301 at 3 ng/ml | concentration of IL-6 (pg/ml, n = 5) released from fresh human whole blood, AP301 at 1 mg/ml as printed | concentration of IL-6 (pg/ml, n = 5) released from fresh human whole blood, AP301 at 10 mg/ml as printed
